Reference: the supplement of paper PMC10567573

B1: MFF (parent)
chain: DDLTVVDAASLRRQIIKLNRRLQL

Variants of: B1
Assay: protein stability index of a GFP-peptide fusion (GPS, HEK-293T) (PSI 1-6); higher = more stable
Conditions: c terminus: a fixed tail appended
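Also: lentivirally expressed fusions sorted by FACS into six bins by GFP to DsRed ratio, PSI derived from sequencing read proportions per bin multiplied by bin number.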

Protein stability index, by site and new letter:
V6: K 2.35 | A 2.91 | T 2.34 | M 1.99 | Y 1.77 | S 1.64 | I 1.55
L11: M 2.51 | A 2.33 | Q 3.24 | C 2.16 | V 3.05 | H 3.19 | E 3.7 | N 2.59 | K 3.28 | F 2.48 | W 2.84 | I 2.72 | R 3.91 | Y 2.82 | T 3.39 | D 3.79 | P 3.33 | G 3.84 | S 3.73
I15: T 2.94 | E 3.83 | V 3.05 | K 3.5 | F 2 | D 3.96 | G 3 | N 2.71 | Q 3.66 | M 1.87 | Y 2.57 | W 2.34 | P 4.26 | L 2.23 | R 3.71 | S 3.74 | A 2.43
S10: M 1.42 | E 2.13 | N 2.28 | H 2.02 | G 2.3 | A 1.7 | V 1.64 | D 2.05 | P 2.89 | C 1.48 | F 2.32 | I 1.72 | Q 2.28 | W 3.84 | R 2.83 | T 1.61 | L 1.24 | K 1.79 | Y 1.69
Q14: T 3.2 | E 1.78 | H 1.57 | F 1.51 | A 1.82 | L 2.45 | R 2.58 | D 2.16 | N 2.31 | Y 1.54 | G 2.5 | I 2.3 | S 2.11 | K 2.23 | C 2.27 | P 3.56 | M 1.04
D1: E 1.67 | F 2.42 | P 2.05 | W 1.88 | N 2.1 | V 2.39 | C 2.04 | L 1.61 | T 1.78 | G 2.17 | M 1.98 | Q 3.2 | Y 2.81 | A 2.08 | H 1.84 | S 2.28 | R 2.45 | K 1.84 | I 2.32
T4: K 2.15 | S 2.43 | H 1.7 | N 2.3 | E 2.21 | V 1.96 | M 2.24 | F 2.08 | A 1.91 | Q 2.32 | R 2.18 | L 2.62 | I 2.2 | C 1.86 | D 2.6 | P 1.56 | Y 1.43
D7: W 1.92 | S 2.24 | P 2.71 | C 1.4 | N 1.89 | R 2.93 | T 1.64 | Y 1.61 | G 2.71 | F 1.85 | K 1.89 | A 2.29 | E 2.04 | Q 2.17 | H 3.12 | M 2.19
R12: Y 1.9 | L 1.67 | D 2.5 | V 2.06 | M 1.64 | S 2.1 | G 1.85 | H 2.58 | F 1.99 | C 1.95 | T 1.73 | P 2.51 | K 2.01 | W 1.92 | A 2.07 | Q 2.13 | N 2.42 | I 1.23
A9: S 2.2 | Q 2.22 | I 2.79 | M 1.84 | P 2.12 | E 2.13 | H 2.52 | F 1.58 | R 4.18 | N 2.42 | D 2.02 | C 2.03 | Y 2.48 | L 2.08 | W 1.84 | K 2.31 | T 1.82 | G 2.11
